According to US20260043807A1:
Where two headings read alike, the source gives them in different places.

Key:
[1] = biological target: Goat IgG; assay: photo-crosslinking, 365 nm 2 hrs, SDS-PAGE (FIG. 6)
[2] = biological target: Goat IgG; assay: as above; remark: listed apart in the source

Protein L C* domain T46BPA (designed binder)
conjugation efficiency [1]: 50%
conjugation efficiency [2]: 30 to 50%
